Experimental data from patent US12366576B2, “Compositions, assays, and methods for direct modulation of fatty acid metabolism” (Dana-Farber Cancer Institute, Inc., priority 2016, dated 2025).
Bridge positions count the residues as written; N and C are the ends. Square brackets hold non-standard residues; d marks the D form. Ends that are not written are not given here. S5 = C=CCCC[C@](C)(N)C(=O)O

Assays:
native VLCAD = biological target: T1, native VLCAD (Mus musculus, UniProt P50544); assay: Biotinylated SAHB pulldown from MEF lysates, anti-VLCAD Western analysis; assay type: binding; details: for summary of binding properties: binding to VLCAD: pull-downs and ITC
T1 construct: As for native VLCAD from MEF lysates; endogenous in cells; host or cells: SV-40-transformed wild-type mouse embryonic fibroblasts (lysate)
T1 sequence (P50544 42-656): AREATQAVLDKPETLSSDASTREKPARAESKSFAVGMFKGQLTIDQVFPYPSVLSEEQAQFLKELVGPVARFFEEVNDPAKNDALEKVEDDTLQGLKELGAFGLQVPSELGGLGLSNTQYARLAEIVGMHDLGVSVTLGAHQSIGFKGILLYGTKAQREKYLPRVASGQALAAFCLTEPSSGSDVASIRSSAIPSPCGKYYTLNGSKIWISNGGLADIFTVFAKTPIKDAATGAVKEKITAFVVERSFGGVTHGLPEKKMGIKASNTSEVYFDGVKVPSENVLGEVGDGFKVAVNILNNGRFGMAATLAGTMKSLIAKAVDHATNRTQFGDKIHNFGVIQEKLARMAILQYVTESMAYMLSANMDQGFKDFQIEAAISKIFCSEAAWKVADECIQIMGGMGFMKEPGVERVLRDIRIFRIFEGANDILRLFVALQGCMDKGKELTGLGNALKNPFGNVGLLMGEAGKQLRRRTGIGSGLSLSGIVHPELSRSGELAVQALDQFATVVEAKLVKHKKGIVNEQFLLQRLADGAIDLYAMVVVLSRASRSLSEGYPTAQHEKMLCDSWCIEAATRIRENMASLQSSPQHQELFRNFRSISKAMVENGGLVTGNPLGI
From the text: To validate the MS result, the pulldowns were repeated and eluates run on a gel for anti-VLCAD Western blot analysis. […] All peptides faithfully recapitulated native BH3-binding propensities for endogenous MCL-1 protein (FIG. 8). The eluates were then probed for the other members of the acyl-CoA dehydrogenase family that manifest shorter fatty acid substrate specificities. MCL-1 SAHBD was able to pull down VLCAD, but not MCAD or SCAD (FIG. 9). Because the traditional MCL-1 staple location differs from that of the BIM, BID, and BAD SAHBs, it was important to confirm that the observed VLCAD binding specificity was due to BH3 sequence selectivity, not staple position. A BIM SAHB with the traditional MCL-1 staple (BIM SAHBF), and a MCL-1 stapled peptide with the traditional BIM staple (MCL-1 SAHBA), were generated. […] To confirm that the selective interaction between MCL-1 SAHBD and VLCAD is direct, recombinant VLCAD was generated and purified by size exclusion chromatography (FIGS. 11 and 12).
The binding determinants for the MCL-1 BH3/VLCAD interaction were investigated by generating a series of biotinylated MCL-1 SAHBD alanine point mutants (FIG. 18A) and performing streptavidin pull-downs from MEF lysates, followed by VLCAD and MCL-1 western analysis of the resulting eluates. […] Native alanines and residues not mutated are colored white. The dotted semicircles highlight the distinctive MCL-1 BH3 binding interfaces for VLCAD versus MCL-1 engagement, as defined by the differential sensitivities to alanine mutagenesis.
(§1) Wild-type MEFs were trypsinized, washed once with cold PBS, and lysed on ice with NP-40 lysis buffer (50 mM Tris, pH 7.4, 150 mM NaCl, 0.5% (v/v) NP-40, complete protease inhibitor pellet (Roche)) using 1 ml of lysis buffer for every 10 million cells lysed. Cellular debris was pelleted at 14,000 g for 10 min at 4° C., and the supernatant was quantified using the BCA Protein Assay Kit (Thermo Fisher Scientific). 2 mg of lysate per pulldown were then exposed to 50 μL of pre-equilibrated High Capacity Streptavidin Agarose beads (Thermo Fisher Scientific). The pre-cleared lysates were then incubated with 15 nmol biotinylated SAHBs (or vehicle, 1.5% (v/v) DMSO) overnight at 4° C., followed by addition of 50 μL of pre-equilibrated High Capacity Streptavidin Agarose beads for 2 hours at 4° C. The beads were then pelleted and washed with NP-40 lysis buffer three times before eluting the protein sample from the beads by heating at 70° C. for 10 min in SDS loading buffer. Samples were then subjected to electrophoresis and either Western analysis or Coomassie stain (SimplyBlue Safe Stain, Thermo Fisher Scientific). The antibodies used for Western analysis were the following: MCL-1 (Rockland 600-401-394; 1:1000 in 3% BSA), VLCAD (Thermo Fisher Scientific PA5-29959; 1:1000 in 1% milk+0.1% Tween-20), MCAD (Thermo Fisher Scientific PA5-27201; 1:1000 in 3% BSA), and SCAD (Abcam ab154823; 1:1000 in 3% BSA). Coomassie stained gels were then processed for proteomics analysis (see below). Biotinylated SAHB pulldowns of recombinant protein were performed as above incubating 5 nmol of SAHB with 10 pmol of rVLCAD in 500 μL total volume. Densitometry analyses were performed using ImageJ software.

endogenous MCL-1 = assay: Biotinylated SAHB pulldown from MEF lysates, anti-MCL-1 Western analysis; assay type: binding, mouse; details: summary, pull-downs
Chain of endogenous MCL-1 (P97287 152-308 limits assumed): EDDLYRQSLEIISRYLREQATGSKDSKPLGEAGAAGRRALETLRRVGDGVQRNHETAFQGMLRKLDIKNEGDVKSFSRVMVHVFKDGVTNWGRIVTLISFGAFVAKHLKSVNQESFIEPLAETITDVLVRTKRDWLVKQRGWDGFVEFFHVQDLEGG
Procedure: An exploratory proteomics analysis was conducted to identify proteins that interact with the MCL-1 BH3 domain helix. An extensive library of MCL-1 stapled BH3 peptides (FIG. 2) was generated to both identify novel protein interactors by mass spectrometry and then deploy the stapled peptide constructs as novel probes to dissect and pharmacologically modulate the identified protein interactors and associated signaling pathways. As an example, an N-terminally biotinylated stapled peptide designed based on the sequence of MCL-1's BH3 domain (Btn-MCL-1 SAHBD), or vehicle, was incubated with wild-type mouse embryonic fibroblast (MEF) lysates, followed by high stringency streptavidin capture. To validate the proteomics workflow and ensure that Btn-MCL-1 SAHBD could, in fact, engage protein interactors in a lysate, eluates were first run on a gel for anti-MCL-1 Western analysis. […] For mass spectrometry (MS) analysis, eluates were run on a reducing/denaturing gel followed by Coomassie staining (FIG. 4) and in-gel digestion was performed before injection on the instrument.
The binding determinants for the MCL-1 BH3/VLCAD interaction were investigated by generating a series of biotinylated MCL-1 SAHBD alanine point mutants (FIG. 18A) and performing streptavidin pull-downs from MEF lysates, followed by VLCAD and MCL-1 western analysis of the resulting eluates. […] Native alanines and residues not mutated are colored white.
as §1, with “The pre-cleared lysates were then incubated with 15 nmol biotinylated SAHBs (or vehicle, 1.5% (v/v) DMSO) overnight at 4° C., followed by addition of 50 μL of pre-equilibrated High Capacity Streptavidin Agarose beads for 2 hours at 4° C.” left out, “The antibodies used for Western analysis were the following: MCL-1 (Rockland 600-401-394; 1:1000 in 3% BSA), VLCAD (Thermo Fisher Scientific PA5-29959; 1:1000 in 1% milk+0.1% Tween-20), MCAD (Thermo Fisher Scientific PA5-27201; 1:1000 in 3% BSA), and SCAD (Abcam ab154823; 1:1000 in 3% BSA).” left out

Substance	summary of binding properties: binding to VLCAD (native VLCAD)	summary of binding properties: binding to MCL-1 (endogenous MCL-1)	effect of alanine mutation on biotinylated MCL-1 SAHBD interaction with VLCAD (native VLCAD; pull-downs from MEF lysates)
E211A: biotinylated MCL-1 SAHBD alanine point mutant E211A (RKALATLRRVGDGV[S5]RNH[S5]TAF; staple 15-19; also: biotinylated, place not given here)	Binds	Binds	–
G217A: biotinylated MCL-1 SAHBD alanine point mutant G217A (RKALETLRRVADGV[S5]RNH[S5]TAF; staple 15-19; also: biotinylated, place not given here)	Binds	weakly or not	–
G219A: biotinylated MCL-1 SAHBD alanine point mutant G219A (RKALETLRRVGDAV[S5]RNH[S5]TAF; staple 15-19; also: biotinylated, place not given here)	Binds	Binds	–
H224A: biotinylated MCL-1 SAHBD alanine point mutant H224A (RKALETLRRVGDGV[S5]RNA[S5]TAF; staple 15-19; also: biotinylated, place not given here)	Does not bind	Does not bind	–
K208A: biotinylated MCL-1 SAHBD alanine point mutant K208A (RAALETLRRVGDGV[S5]RNH[S5]TAF; staple 15-19; also: biotinylated, place not given here)	enhanced binding	diminished binding	–
L210A: biotinylated MCL-1 SAHBD alanine point mutant L210A (RKAAETLRRVGDGV[S5]RNH[S5]TAF; staple 15-19; also: biotinylated, place not given here)	weakly or not	Binds	uniquely disruptive
T212A: biotinylated MCL-1 SAHBD alanine point mutant T212A (RKALEALRRVGDGV[S5]RNH[S5]TAF; staple 15-19; also: biotinylated, place not given here)	Binds	weakly or not	–
T226A: biotinylated MCL-1 SAHBD alanine point mutant T226A (RKALETLRRVGDGV[S5]RNH[S5]AAF; staple 15-19; also: biotinylated, place not given here)	diminished binding	diminished binding	–
V216A: biotinylated MCL-1 SAHBD alanine point mutant V216A (RKALETLRRAGDGV[S5]RNH[S5]TAF; staple 15-19; also: biotinylated, place not given here)	Binds	weakly or not	–
